In a protein production outcome set (Wang et al. 2014):

Test: label from the status in PepcDB records

| Sequence | protein production |
| --- | --- |
| MKKNLFYLFALICSMSLFTACSDDDEAPGNSGVVGEVVGDYKGLMDVYYEPNVEIAKGMQQKITIKKSSDTSIGLELKNFVITVGGAPITIGDLAIDNCPLKVEGDKYSFTGNADLDLVVGKCAVSVEGAINGEDIELIIKVNVNNDLMKVRVEYKGKKMTGNESSEALIKEFKFDSDIIAEQPVINEDKTITFKVAETATDDDLKALKPIITISENATVTPESGVTQDFSGNKVVIYKVTSEDGTTVTEYKVSARKSSDALITSFVFENNPIVAEQPVINEDNTITFKVKASATADDLKALVPTITYSHKATIAPESGVAQDFSDNKKVIYTVTSEDGTVIKEYQVFISGTEDVYDFEKWLPGVEGQEPENTFYEAEGWASSNTGAHFLKGFNLTDSYVIMQTDDSHSGTAAAKIQSIDTKGQDLGIAKAPKVTTGSLFLGKFKTDIFNTLNSTKFGIPCKEKPISLRGWYKYTPGDVYYIVNTKPYKEHCHEAVVDETKVDEFMISVVLYETTAYDEIGWSDCLTGTDEEEKNIYTSSRIAAIGQLIGGAQTDWKKFELPLEWKKQYDTNKKYRMTIACSSSKDGDKFWGAPGSTLIVDDFELIKE | failed |
| MKKPFFGFMFIALFSASLFCNPADLYQKGAEYQANEDWYGAIEMYQSALKENPSYNLVYQGLAECFYALDEYDQALSFVESARKYKKDDPDLQNLHGFILVGLGKIDAAKTLFNGVLKKYPNNPEARFGLAEIEVSQGKLYLASEMYKQNLQRQGENRKDLLSLALVSYEAGNVKQAEDYINRALKYHGDNPQVHYFAAYLHSLDGKLEEAEGRIYSALKLKEDYDEAYALLASVLYAQKRYEEVIKISDMRISKKRDRADAWYLKTLSLRQLARYGEAINAAKVGLSLDADDEIMRCLLEELAIENLNFEDSFRMELSKYHAQKALGFFRRNMTEQALYEYRRTLKIYPYDVESREAYAGILLRLGYPERYLEQMLFIQSIVKSNTKVNDAVEAYEKHLLSSIQSKWRIDPLYLDKAHISIGLFYTMESSNVLHPEAERITQILTSDIFSYNPRIKITSYSDKPVTYREASKKSRTANEDYFGIIRLKENRRDIQIILELYVSRTGSPAKTFTVYRSGNDRFSNGIRRLSSMLNEAMPIVGKLINRYQNEAVIDIGKHDSDFKDLKIAVIRKDRLVIEKEGLGMVFDPSDLLGYFEPSKSEENLSEGILKRNGYYDRMNAGDSIILVSENAKEKAAEDYTNSYQKNSLLLLLLRRIR | failed |
| MKKQLIKSSTFRTLEVIIITVISLVLTPYLIHHLGDAHYGLWILILSALGWFNFIDLGFAYAVQRNIVLALENKDNHRINIVFSVAVALFSVLGFIAAFCVLVLAFFPELLGINEKEQSIATIAFSILAIKVFLDFIMNCFHGFFTAYLRMDIDANLGTLNMVVKSILVFYLIIDMNIYGAVFATIAADILTHSLKMHFARKLHPEFKFVLHLVKFSEVRQLFAFSKHLILMGMAKSVNRRVDPIIISHLLGLKFVAIYNVINSLMNQVESLVGAIVGVFQPVLTKMVARNTGLDGTFKLIISINFFTVILLYMPLAILAEDFITLWIGLDYAQAGQLAPILGFAYICRTVSRPISSLLLAKAQHQLLSVVNLLGALLNIGLSLVLGSQWGLLGIAIATACSFFVSDVILHLVLLNKYTELPVLKPILEFIKLVVLYILLVVLGISMMQLFEPLNWGQLIIAAIACVCIALLIAWPMLLDKEVKQKLLGMLIKTGKAHD | failed |
| MKKQYWWIIVTYILMQLSGVVGLPLLLKTGLYDNRGFTIEEKGQIITGHWAIISFFIALCIVLWLLRTDIRDRHLDPMRSSVPATIGWIFIGFFLAIISQSIAGMIEMYVFGVPRGSENTDRLLDIARTIPWFLIVVSIIGPILEEIVFRKILFGTLYKKFNFFIAAIISSLVFATIHFDFTHLLVYTAMGLVFAFLYVKTKRIIVPIAAHVAMNTLVAIGQIFMSNEQIQEMIKEAEKMQGFIGGFFV | failed |
| MKKRLFVLSLILLVALDQLSKFWIVSHIALGEVKPFIPGIVSLTYLQNNGAAFSILQDQQWFFVVITVLVIGYAIYYLATHPHLNIWKQLALLLIISGGIGNFIDRLRLAYVIDMIHLDFVDFAIFNVADSYLTVGVILLLICLWKEEDYGN | failed |
| MKKSINEQKTIFIILLSNIFVAFLGIGLIIPVMPSFMKIMHLSGSTMGYLVAAFAISQLITSPFAGRWVDRFGRKKMIILGLLIFSLSELIFGLGTHVSIFYFSRILGGVSAAFIMPAVTAYVADITTLKERSKAMGYVSAAISTGFIIGPGAGGFIAGFGIRMPFFFASAIALIAAVTSVFILKESLSIEERHQLSSHTKESNFIKDLKRSIHPVYFIAFIIVFVMAFGLSAYETVFSLFSDHKFGFTPKDIAAIITISSIVAVVIQVLLFGKLVNKLGEKRMIQLCLITGAILAFVSTVMSGFLTVLLVTCFIFLAFDLLRPALTAHLSNMAGNQQGFVAGMNSTYTSLGNIFGPALGGILFDLNIHYPFLFAGFVMIVGLGLTMVWKEKKNDAAALN | failed |
| MKKSLLMLLLSAATLSSIEAQTIQQMKAGGPWPVRAAFKTDTVGMNGSKYNPADLLRQAYDATDKDLRNVSADKDGRIAGRKAGSKAERSEMAVYSFALTAEHFAKGDIEVFGQGRMSLWLDDKQIGIADSPNSKGDTTLRFSASLSLVPGTHHLLLKSLLLEGDTTATDVRVVLKPKTARDSSALYPNYTGKERLSLKHMMSGTFLSGGSLSPTGKYVLTSYRVSRDNKPAVTYNQLRDAKGNILLNLNEKEALGWMPHEDMLMVIRKEGNAKRLVAFDPMGKGEKTLVSNLPESQFRMSPDARYYLFYKQEKGPGKDPLFIRHLDPDDRQSDWRDRSQIYLLNAESGVYGPLTFGYSTTYIYDIAPDSKRALIGTLSTDWTRRPFRFATIMEYNMETGKADTLITRDPSIDAIQYTPDGKHLIVMGSADAFGNIGLNLKSGVTPNSYDKQFFLFDLSTRKATALTKNFNPSVSAGRFDRKNNYYYFRAENGSRKQLYRLDLKTLEISQIQTGEDVVQWFGVAADNGAVWYSGQSANNADRLYRLDGTKGKLVWDLSAEKLANIDFTPARDWNYTAPDGTVVEGWYYLPPQFDPSKKYPMLVYYYGGTSPINRTLEGHYSLAMYAAQGYVVYTLNPSGTTGYGQEYAARHVNAWGDRTADEIIGATKEFIRTHSFVNGKKVGCFGASYGGFMTQYLQTKTDIFAAAVSHAGISSISNYWGSGYWGMGYSTVASTDSYPWNNPDLYAGHSPLFRADKIHTPLLLLHGSVDTNVPTAESVNLYNALKILGREVEFIEFTEQDHFILEPERRIRWTNSICAWFARWLQDDPTWWNELYPPVNL | failed |
| MKKTFNLVATAAAGIEAVVGKELRNLGLDCQVENGRVLFKGNIETIAKSNLWLRSADRIKIVVGEFPARTFEELFQGVYALDWENYLPLGCQFPVAKAKSVKSKLHNEPSIQGITKKAIVKKLQHYFHRPDSVPLPENGPEFKIEISLLKDQARVMIDTTGPSLFKRGYRTEKGGAPIKENMAAAIILLSNWFPDKPFVDPTCGSGTFCIEAAMIGMNIAPGFNRDFAFEEWPWVDEALVTRVRNEADEQADYDIQLDISGFDFDGRMVEIARKNAREVGLEDVVKLKQMRLQDFKTNKINGVLISNPPYGERLLDDKAVDILYNEMGETFAPLKTWSQFILTNDTDFEQKFGRKADKKRKLYNGSLKVDLYQFYGQRVKRVLR | not failed |
| MKKTIEKILKDIIDATSITDMCDKSVCHWLQPVVDTIVFPEYYLFSSNHLKENIISLLIVLGVLLIFGLIVEEMMKRIFRKNEEKYMWVHKIFEKVIVAFLLFYSMKTIIYFIALKHHSF | failed |
| MKKTPIYVEISIQAEMERLWRYTQDPTLHRQWDLRFTDITYLKRRPGEPQRFLYETRIGFGLEHHHHHH | not failed |
| MKKTTLVLSALALSIGFAMGPVSSVVAAETAASSSQQLPSLAPMLEKVMPSVVSINVEGSAPVSSAGARGMPPQFQQFFGDNSPFCQDGSPFQGSPMCQGDLGGLGQGMPSKREFRSLGSGVIIDAGKGYVVTNNHVVDNANKISVKLSDGRSFDAKVIGKDPRTDIALLQLKDAKNLTAIKIANSDQLRVGDYTVAIGNPYGLGETVTSGIVSALGRSGLNVENYENFIQTDAAINRGNSGGALINLNGELIGINTAILAPDGGNIGIGFAIPSNMVKNLTSQMVEFGQVKRGELGIMGTELNSELAKAMKVDAQKGAFISQVVPKSAAAKAGIKAGDIIVSMNGKAINSFAGFRAEIGTLPVGSKMTLGLLRDGKPINVDVVLEQSSHSQVESGNLYTGIEGAELSNSDVSGKKGVKVDSVKPGTAAARIGLKKGDIIMGINQQPVQNLGELRKILDAKPPVLALNIQRGDTSLYLLMQ | failed |
